Experimental data taken from publication PMC4357707 (Nucleic Acids Research, 2015).

Experiments:
HEN1-K22A = biological target: T1, HEN1-K22A (Arabidopsis thaliana, UniProt Q9C5Q8 1-942, K22A); test: EMSA
T1 sequence: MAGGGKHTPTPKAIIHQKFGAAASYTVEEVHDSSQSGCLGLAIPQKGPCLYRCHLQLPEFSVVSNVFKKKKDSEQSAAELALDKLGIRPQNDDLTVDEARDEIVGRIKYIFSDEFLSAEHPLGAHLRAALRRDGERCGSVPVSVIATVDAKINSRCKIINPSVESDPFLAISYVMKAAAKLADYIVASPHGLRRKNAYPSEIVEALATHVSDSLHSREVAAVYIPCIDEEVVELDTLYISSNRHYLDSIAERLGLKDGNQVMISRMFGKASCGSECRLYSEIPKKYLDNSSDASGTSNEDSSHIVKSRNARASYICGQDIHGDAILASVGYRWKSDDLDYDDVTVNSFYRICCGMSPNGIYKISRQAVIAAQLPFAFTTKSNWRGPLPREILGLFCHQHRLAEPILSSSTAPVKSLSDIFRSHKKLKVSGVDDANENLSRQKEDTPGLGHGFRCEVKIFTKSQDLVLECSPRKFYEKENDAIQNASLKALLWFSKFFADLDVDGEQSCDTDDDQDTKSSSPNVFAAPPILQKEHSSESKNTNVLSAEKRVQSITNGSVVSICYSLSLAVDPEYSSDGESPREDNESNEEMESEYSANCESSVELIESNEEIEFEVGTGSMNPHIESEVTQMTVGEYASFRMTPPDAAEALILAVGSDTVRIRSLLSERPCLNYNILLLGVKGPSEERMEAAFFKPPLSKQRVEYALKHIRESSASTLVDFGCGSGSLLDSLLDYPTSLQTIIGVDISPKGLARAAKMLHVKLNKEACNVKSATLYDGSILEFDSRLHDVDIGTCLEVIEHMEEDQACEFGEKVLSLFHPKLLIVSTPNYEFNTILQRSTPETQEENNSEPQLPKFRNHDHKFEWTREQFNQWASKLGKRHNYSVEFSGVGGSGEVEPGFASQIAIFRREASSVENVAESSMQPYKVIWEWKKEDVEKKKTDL

HEN1 wt = biological target: T2, HEN1 wt (Arabidopsis thaliana, UniProt Q9C5Q8 1-942); test: EMSA
T2 sequence: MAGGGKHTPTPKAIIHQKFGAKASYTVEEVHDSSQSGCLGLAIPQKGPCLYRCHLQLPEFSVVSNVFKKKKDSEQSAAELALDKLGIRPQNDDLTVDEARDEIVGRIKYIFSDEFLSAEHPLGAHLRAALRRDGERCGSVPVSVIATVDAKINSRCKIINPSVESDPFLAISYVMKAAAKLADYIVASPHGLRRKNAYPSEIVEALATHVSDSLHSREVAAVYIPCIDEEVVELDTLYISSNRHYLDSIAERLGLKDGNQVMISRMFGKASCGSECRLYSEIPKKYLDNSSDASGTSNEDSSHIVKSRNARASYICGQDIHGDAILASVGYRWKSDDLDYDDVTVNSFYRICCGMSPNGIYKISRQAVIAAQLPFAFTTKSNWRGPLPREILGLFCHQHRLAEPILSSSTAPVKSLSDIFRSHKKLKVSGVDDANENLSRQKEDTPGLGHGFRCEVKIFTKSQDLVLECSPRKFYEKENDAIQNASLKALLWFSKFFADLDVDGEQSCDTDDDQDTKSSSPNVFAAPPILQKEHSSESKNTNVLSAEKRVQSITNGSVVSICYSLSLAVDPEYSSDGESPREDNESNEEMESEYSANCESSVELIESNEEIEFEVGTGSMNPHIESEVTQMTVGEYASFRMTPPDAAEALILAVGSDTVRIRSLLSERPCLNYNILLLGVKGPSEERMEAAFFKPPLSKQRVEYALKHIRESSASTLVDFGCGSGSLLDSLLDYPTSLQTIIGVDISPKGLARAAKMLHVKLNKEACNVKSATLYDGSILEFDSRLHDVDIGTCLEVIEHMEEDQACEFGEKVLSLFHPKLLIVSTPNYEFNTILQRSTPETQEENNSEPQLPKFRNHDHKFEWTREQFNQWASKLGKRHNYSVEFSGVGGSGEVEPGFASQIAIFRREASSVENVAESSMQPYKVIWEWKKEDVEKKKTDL

B1: miR173/miR173* (dsRNA)
RNA 1: UUCGCUUGCAGAGAGAAAUCAC
RNA 2: GAUUCUCUGUGUAAGCGAAAG
Does B1 bind (HEN1-K22A)?
Result: binds

What about the Kd (HEN1 wt) of the same binder?
The Kd was 0.32 ± 0.03 nM.
